Data reported in US8507656B2, “Stabilized angiopoietin-2 antibodies and uses thereof” (MedImmune Limited, priority 2008, dated 2013).
Entries after “also recorded” stand apart in the source; their conditions may differ.

Key:
[1] = system: H460 xenograft tumors; assay type: in vivo; details: 3.19.3 10 mg/kg 2×wk i.p., AZD4877 10 mg/kg q4dx2 i.p., combination of both
Experimental: The anti-tumor activity of 3.19.3 was evaluated in combination with AZD4877 in the
H460 xenograft model of lung cancer. H460 cells were cultured in flasks as routine until the cells reached sub-confluence. Cell suspensions containing approximately 3×10E6 cells were injected subcutaneously into the right flank of male NCr nu/nu mice. When the tumor volume reached 200 mm^3, the mice were randomized in treatment groups of 8-10 mice and the treatments were initiated. 3.19.3 (10 mg/kg) in saline was injected intraperitoneally, twice per week for 2 weeks. AZD4877 (10 mg/kg) was administered by intraperitoneal administration following a q4d schedule. The dimensions of each tumor and body weights were measured at least twice per week. The volume of the tumor was calculated as: Volume=Length×(Width)×0.5 (cm^3).

[2] = molecular target: Tie2 (Homo sapiens, UniProt Q02763); details: Maisonpierre et al., Science 277:55-60 (1997); read-out: affinity (Kd) for Tie2; cited from earlier work
Sequence of Tie2 (Q02763 23-1124, species assumed): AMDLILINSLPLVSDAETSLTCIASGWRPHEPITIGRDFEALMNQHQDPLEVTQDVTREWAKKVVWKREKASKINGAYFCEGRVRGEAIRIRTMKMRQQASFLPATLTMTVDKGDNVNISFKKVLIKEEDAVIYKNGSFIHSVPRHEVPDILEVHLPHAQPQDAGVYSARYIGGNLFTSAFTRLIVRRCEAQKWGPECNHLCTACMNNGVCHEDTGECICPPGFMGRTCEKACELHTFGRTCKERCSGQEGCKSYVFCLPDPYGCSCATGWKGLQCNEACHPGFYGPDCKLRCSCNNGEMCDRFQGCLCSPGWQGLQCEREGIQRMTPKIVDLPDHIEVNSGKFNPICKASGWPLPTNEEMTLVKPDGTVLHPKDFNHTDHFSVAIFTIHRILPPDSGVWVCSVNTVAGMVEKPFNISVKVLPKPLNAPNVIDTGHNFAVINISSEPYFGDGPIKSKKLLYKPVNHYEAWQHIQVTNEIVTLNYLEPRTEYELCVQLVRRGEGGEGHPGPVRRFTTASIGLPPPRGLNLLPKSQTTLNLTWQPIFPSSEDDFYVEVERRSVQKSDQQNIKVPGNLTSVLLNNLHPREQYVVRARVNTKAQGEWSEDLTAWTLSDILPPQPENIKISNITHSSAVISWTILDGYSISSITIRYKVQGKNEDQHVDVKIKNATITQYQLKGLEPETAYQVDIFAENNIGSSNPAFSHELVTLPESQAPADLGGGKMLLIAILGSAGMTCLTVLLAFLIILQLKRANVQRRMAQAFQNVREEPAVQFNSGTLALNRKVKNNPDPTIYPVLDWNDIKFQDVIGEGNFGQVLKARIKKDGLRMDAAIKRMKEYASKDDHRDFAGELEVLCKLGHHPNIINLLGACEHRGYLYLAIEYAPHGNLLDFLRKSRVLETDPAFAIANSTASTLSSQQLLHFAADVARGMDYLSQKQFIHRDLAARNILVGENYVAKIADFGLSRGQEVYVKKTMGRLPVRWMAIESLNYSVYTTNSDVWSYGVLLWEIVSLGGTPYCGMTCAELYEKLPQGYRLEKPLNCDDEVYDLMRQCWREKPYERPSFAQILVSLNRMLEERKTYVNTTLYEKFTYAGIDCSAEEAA

[3] = system: glucose 6 phosphate isomerase (G6PI) arthritis; test: G6PI arthritis disease model, prophylactic; assay type: in vivo, male DBA/1J mice; details: for clinical signs of disease progression (arthritic score) (in words): single agents
[4] = system: glucose 6 phosphate isomerase (G6PI) arthritis; test: G6PI arthritis disease model, therapeutic; assay type: in vivo, male DBA/1J mice; details: after onset of clinical disease, MEDI1/5 alone, etanercept both doses
Experimental: The effect of treatment with MEDI 1/5 with or without etanercept was evaluated following onset of clinical disease in the glucose 6 phosphate isomerase (G6PI) arthritis disease model. G6PI-induced arthritis was induced in male DBA/1J mice and animals dosed therapeutically with test treatments.
Materials and Methods: The mice in this study were prepared similarly as presented in Example 12.
Dosing: This was a rolling admissions study: once an animal reached a clinical score of 3.5 to 5.0, it was randomly assigned to treatment groups (as outlined below) and dosing began. The day of initial dosing became study day 0 for that animal. Treatment groups were similar to those presented in Example 12.
Termination: Study was terminated 12 days post treatment initiation. No further endpoints were assessed on these animals.

[5] = molecular target: T1, Ang-2 (Homo sapiens, UniProt O15123); test: Competitive Tie-2 Fc/Ang2 ELISA; assay type: binding; details: competition with immobilized Tie-2; IgG1 or IgG2 format
T1 construct: purchased R & D Systems
T1 sequence (O15123 19-496): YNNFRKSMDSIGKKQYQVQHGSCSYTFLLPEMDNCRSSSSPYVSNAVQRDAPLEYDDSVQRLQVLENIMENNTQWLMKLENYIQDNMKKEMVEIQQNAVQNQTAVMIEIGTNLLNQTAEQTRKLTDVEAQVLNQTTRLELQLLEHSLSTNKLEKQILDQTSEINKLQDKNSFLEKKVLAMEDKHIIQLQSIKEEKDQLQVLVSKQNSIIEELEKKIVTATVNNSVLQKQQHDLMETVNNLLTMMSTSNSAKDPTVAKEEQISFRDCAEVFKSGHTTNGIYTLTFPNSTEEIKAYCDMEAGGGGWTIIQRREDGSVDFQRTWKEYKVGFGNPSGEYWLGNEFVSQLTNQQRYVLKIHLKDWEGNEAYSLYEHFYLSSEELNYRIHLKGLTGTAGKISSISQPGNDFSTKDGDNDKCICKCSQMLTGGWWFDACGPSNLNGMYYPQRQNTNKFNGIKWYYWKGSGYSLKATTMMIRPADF
Experimental: In this example the Ang-2 antibody, 3.19.3, and a modified 3.19.3 antibody comprising a C49T (MEDI1/5) substitution were analyzed for Ang-2 binding in a competitive ELISA format assay.
Competitive Tie-2 Fc/Ang2 ELISA: Maxisorp ELISA plates (Nunc, Rochester, N.Y.) were coated with 100 μl of 4 μg/ml Tie-2 Fc (R & D Systems, Minneapolis, Minn.) in 0.1M carbonate buffer pH 9.4 (Pierce, Rockford, Ill.) and incubated overnight at 4° C. The following day, plates were blocked for 1 hour at room temperature with 200 μl of phosphate buffered saline (PBS) (Invitrogen, Carlsbad, Calif.) containing 0.5% bovine serum albumin (BSA) (Sigma, St. Louis, Mo.) and 0.1% Tween-20 (Sigma, St. Louis, Mo.). Plates were washed 3 times with wash buffer (PBS containing 0.05% Tween-20). 50 μl of 11-point serial tertiary dilutions (30 μg/ml high concentration) of 3.19.3 or modified anti-Ang2 antibody were plated, with PBS as a negative control. For antibody capture, 50 μl of 200 ng/ml Biotin Ang2 (R & D Systems, Minneapolis, Minn.) were added and plates were incubated for 2 hours at room temperature. Plates were washed 3 times with wash buffer. Following the wash, 100 ul of 1:5000 streptavidin HRP (Pierce, Rockford, Ill.) dilution in wash buffer were added and incubated for 1 hour at room temperature. […] Optical densities were measured at 450 nm with a microplate reader (Molecular Devices, Sunnyvale, Calif.).

[6] = system: retinal angiogenesis; test: Retinal vascularization in mouse pups; assay type: in vivo, CD1 pups
Experimental: […] At p10, pups were anesthetized with isoflurane and then perfused with 12.5 mg/ml FITC-dextran (Vector Labs). A small slit was made in the cornea and the entire eye was removed from the optic cup before placing into 10% neutral buffered formalin. After 1 hour fixation in formalin, eyes were briefly rinsed in PBS and then placed in a dish of PBS for dissection. Retinas were carefully dissected and cut into a clover leaf formation prior to mounting onto a glass slide with Vectashield (Vector Labs). Images of flatmounts were examined and acquired using fluorescence microscopy (Nikon) with attached digital camera system.

[7] = system: FGF2 mediated angiogenesis; test: FGF2-induced Matrigel plug assay; assay type: in vivo, athymic mouse
Experimental: The anti-Ang-2 antibody, MEDI1/5 was evaluated for anti-angiogenic effects in a FGF2 (basic FGF)-induced Matrigel™ plug assay. Recombinant murine FGF2 (rmFGF basic; R&D Systems) was pre-mixed with Matrigel™ (reduced growth factor, phenol red-free; Trevigen) at 1 μg/ml. Each 5-6 week old female athymic mouse was subcutaneously implanted with 500 gl of FGF2/Matrigel™ mixture. Antibody MEDI1/5 was administered 10 minutes prior to FGF2/Matrigel™ implantation and continued every three days given intraperitoneal at 1, 10, and 20 mg/kg for a total of 3 doses. The extent of angiogenesis was assessed after 10 days by measuring dextran functioning vessels. Mice were intervenously injected with 100 gl FITC-Dextran (250,000MW; Sigma) at 25 mg/ml in saline. Twenty minutes post FITC-Dextran injection, mice are humanely euthanized and plugs dissected out. Plugs are then placed in lysing matrix tubes A (MP Biomedicals) containing 1 ml of PBS and homogenized on FastPrep machine (MP Biomedicals) for 60 seconds at 6.0 M/S. Samples were then centrifuged at 10,000 rpm for 5 minutes and supernatant collected. 200 μl of each sample (in duplicates) was then placed into a white, clear bottom 96 well plate and FITC output was read on EnVision instrument (Perkin Elmer).
For histology purposes, plugs were harvested and placed into 10% neutral-buffered formalin, processed and then paraffin embedded. The paraffin embedded tissues were then sectioned and stained with hematoxylin and eosin.

## Cc1ccc(C(=O)N(CCCN)C(c2nc3snc(C)c3c(=O)n2Cc2ccccc2)C(C)C)cc1 (centres unmarked) [AZD4877]
[1]
  % tumor growth inhibition: 50%

## Ang-2: angiopoietin, ligand of Tie2; antigen of the antibodies
[2]
  Kd: 3 nM

## etanercept
[3]; 1 mg/kg etanercept, 1 mg/kg
  % Disease free joints: 22%
[3]; 4 mg/kg etanercept, 4 mg/kg
  % Disease free joints: 53%
[3]; 4 mg/kg etanercept, listed as enbrel, 4 mg/kg
  % Disease free joints: 53%
[3]
  clinical signs of disease progression (arthritic score) (in words): Reductions in clinical signs of disease progression; also recorded: reduction
[4]
  clinical signs of disease progression (arthritic score) (in words): no effect on disease progression

B1: MEDI1/5: anti-Ang-2 antibody with MEDI1 light chain (SEQ ID No. 3) and MEDI5 heavy chain (SEQ ID No. 7); isotype not stated (antibody)
VH: QVQLVESGGGVVQPGRSLRLSCAASGFTFTNYGMHWVRQAPGKGLEWVAVISHDGNNKYYVDSVKGRFTISRDNSKNTLYLQMNSLRAEDTAVYYCAREGIDFWSGLNWFDPWGQGTLVTVSS
light: EIVLTQSPGTLSLSPGERATLSCRASQSITGSYLAWYQQKPGQAPRLLITGASSWATGIPDRFSGSGSGTDFTLTISRLEPEDFAVYYCQQYSSSPITFGQGTRLEIKRTVAAPSVFIFPPSDEQLKSGTASVVCLLNNFYPREAKVQWKVDNALQSGNSQESVTEQDSKDSTYSLSSTLTLSKADYEKHKVYACEVTHQGLSSPVTKSFNRGEC
[5]
  binding profile for Ang-2 compared to 3.19.3 (in words): very similar binding profile
[6]; MEDI1/5 0.3 mg/kg
  extent of retina vasculature (in words): extend to the outer edge of retina
[6]; MEDI1/5 0.3, 1.0 and 10 mg/kg i.p. at p1, p3, p5, retinas at p10
  retinal angiogenesis (in words): dose-dependent inhibition of retinal angiogenesis; also recorded: inhibited in a dose-dependent fashion
[7]; FGF2+MEDI1/5 plugs vs FGF2 plugs alone
  vessels in plugs, hematoxylin and eosin staining (in words): fewer vessels; also recorded: lower level of vascularization
[7]; MEDI1/5 1, 10, and 20 mg/kg i.p., 3 doses, FGF2 1 μg/ml plugs (FGF2 alone approximately 0.78 μg)
  amount of FITC-dextran present in plugs: 0.05 to 3 µg
[7]; MEDI1/5 1, 10 or 20 mg/kg i.p., vs FGF2 plugs
  FITC-dextran content / angiogenesis in plugs (in words): significant reduction in FITC-dextran; also recorded: significant reduction in angiogenesis
[3]; 10 mg/kg MEDI1/5, 10 mg/ml Isotype control (so in the source), 10 mg/kg
  % Disease free joints: 31%
[3]
  clinical signs of disease progression (arthritic score) (in words): Reductions in clinical signs of disease progression; also recorded: reduction
[4]
  clinical signs of disease progression (arthritic score) (in words): modest reductions in clinical signs of disease progression

B2: Ang-1: angiopoietin, ligand of Tie2 (protein, UniProt Q15389 16-498, looked up)
Angiopoietin-1: HIGCSNQRRSPENSGRRYNRIQHGQCAYTFILPEHDGNCRESTTDQYNTNALQRDAPHVEPDFSSQKLQHLEHVMENYTQWLQKLENYIVENMKSEMAQIQQNAVQNHTATMLEIGTSLLSQTAEQTRKLTDVETQVLNQTSRLEIQLLENSLSTYKLEKQLLQQTNEILKIHEKNSLLEHKILEMEGKHKEELDTLKEEKENLQGLVTRQTYIIQELEKQLNRATTNNSVLQKQQLELMDTVHNLVNLCTKEGVLLKGGKREEEKPFRDCADVYQAGFNKSGIYTIYINNMPEPKKVFCNMDVNGGGWTVIQHREDGSLDFQRGWKEYKMGFGNPSGEYWLGNEFIFAITSQRQYMLRIELMDWEGNRAYSQYDRFHIGNEKQNYRLYLKGHTGTAGKQSSLILHGADFSTKDADNDNCMCKCALMLTGGWWFDACGPSNLNGMFYTAGQNHGKLNGIKWHYFKGPSYSLRSTTMMIRPLDF
[2]
  Kd: 3 nM
